Data published in patent US11419921B2, “Methods of treating neurological disorders” (EnClear Therapies, Inc., priority 2018, dated 2022).

Tested on: (GR)10
Test: Cleavage of (GR)10 by enzymes in solution (PBS with CaCl2 and MgCl2), LC/MS of GR repeats
Format: biochemical
Conditions: for (GR)1 concentration / (GR)2 concentration / (GR)3 concentration / (GR)4 concentration / (GR)5 concentration / (GR)6 concentration / (GR)8 concentration / (GR)10 concentration: (GR)10 50 μM; for (GR)1 / (GR)2 / (GR)3 / (GR)4 / (GR)5 / (GR)6 / (GR)8 / (GR)10: PBS, normalized
Experimental: • (GR)10 dipeptide (also (GR)8, (GR)6, (GR)4, (GR)2) were synthetized by solid-phase synthesis by CanPeptide; All peptides are uncapped and supplied lyophilized with TFA as counter ions. Purity was always above 95%. • Buffer: PBS buffer containing CaCl2 and MgCl2. • Stock solution of enzyme (e.g., 10 mg/mL) (prepared per manufacturer instructions) in PBS. Activators added as necessary. • Working solution of protein of the desired concentration (e.g., 100 μg/mL) prepared immediately before use by diluting the stock solution (e.g., 5 μL of 10 mg/mL stock solution) in PBS buffer (e.g., in 495 μL of PBS). Exemplary Procedure Using 50 μM Concentrations of (GR)10
25 μL of a 100 μM solution of (GR)10 was added to each well of a 96-well plate. 25 μL of a solution of enzyme (two times the desired final enzyme concentration) was added, and the plates were incubated at room temperature. At the specified time points (5 minutes, 10 minutes, 30 minutes, 60 minutes, and 180 minutes) 2.5 μL of a 10% TFA solution were added to stop the reaction. For the time 0 min well, the TFA was added to the well before addition of the enzyme. After last time point, all samples were further diluted with 150 μL of dilution solution. The quenched reaction mixtures were analyzed by LC/MS to determine the concentration of GR repeats of different lengths.
The chromatography and mass spectrometry conditions utilized are shown in Table 2 and Table 3, respectively.

B1: Trypsin: protease cleaving at the carboxyl side of lysine or arginine; in Table 21 also immobilized in-house on NHS-activated agarose resin (protein, UniProt P00760 24-246, looked up)
Serine protease 1: IVGGYTCGANTVPYQVSLNSGYHFCGGSLINSQWVVSAAHCYKSGIQVRLGEDNINVVEGNEQFISASKSIVHPSYNSNTLNNDIMLIKLKSAASLNSRVASISLPTSCASAGTQCLISGWGNTKSSGTSYPDVLKCLKAPILSDSSCKSAYPGQITSNMFCAGYLEGGKDSCQGDSGGPVVCSGKLQGIVSWGSGCAQKNKPGVYTKVCNYVSWIKQTIASN
Enzyme 2.5 μg/mL, 0 min
  (GR)1 concentration: BLQ
  (GR)2 concentration: BLQ
  (GR)3 concentration: BLQ
  (GR)4 concentration: BLQ
  (GR)5 concentration: BLQ
  (GR)6 concentration: BLQ
  (GR)8 concentration: 0.5 µM
  (GR)10 concentration: 52.8 µM
Enzyme 2.5 μg/mL, 5 min
  (GR)1 concentration: 114.3 µM
  (GR)2 concentration: 157.8 µM
  (GR)3 concentration: 0.1 µM
  (GR)4 concentration: BLQ
  (GR)5 concentration: BLQ
  (GR)6 concentration: BLQ
  (GR)8 concentration: 0.1 µM
  (GR)10 concentration: 2.2 µM
Enzyme 2.5 μg/mL, 10 min
  (GR)1 concentration: 124.7 µM
  (GR)2 concentration: 167.7 µM
  (GR)3 concentration: 0.1 µM
  (GR)4 concentration: BLQ
  (GR)5 concentration: BLQ
  (GR)6 concentration: BLQ
  (GR)8 concentration: BLQ
  (GR)10 concentration: BLQ
Enzyme 2.5 μg/mL, 30 min
  (GR)1 concentration: 137.7 µM
  (GR)2 concentration: 144.9 µM
  (GR)3 concentration: BLQ
  (GR)4 concentration: BLQ
  (GR)5 concentration: BLQ
  (GR)6 concentration: BLQ
  (GR)8 concentration: BLQ
  (GR)10 concentration: BLQ
Enzyme 2.5 μg/mL, 60 min
  (GR)1 concentration: 163.2 µM
  (GR)2 concentration: 134.1 µM
  (GR)3 concentration: BLQ
  (GR)4 concentration: BLQ
  (GR)5 concentration: BLQ
  (GR)6 concentration: BLQ
  (GR)8 concentration: BLQ
  (GR)10 concentration: BLQ
Enzyme 2.5 μg/mL, 120 min
  (GR)1 concentration: 215.2 µM
  (GR)2 concentration: 107.7 µM
  (GR)3 concentration: BLQ
  (GR)4 concentration: BLQ
  (GR)5 concentration: BLQ
  (GR)6 concentration: BLQ
  (GR)8 concentration: BLQ
  (GR)10 concentration: BLQ
Enzyme 10 μg/mL, 0 min
  (GR)1 concentration: 0.1 µM
  (GR)2 concentration: BLQ
  (GR)3 concentration: BLQ
  (GR)4 concentration: BLQ
  (GR)5 concentration: BLQ
  (GR)6 concentration: BLQ
  (GR)8 concentration: 0.5 µM
  (GR)10 concentration: 48.9 µM
Enzyme 10 μg/mL, 5 min
  (GR)1 concentration: 124.4 µM
  (GR)2 concentration: 138.9 µM
  (GR)3 concentration: BLQ
  (GR)4 concentration: BLQ
  (GR)5 concentration: BLQ
  (GR)6 concentration: BLQ
  (GR)8 concentration: BLQ
  (GR)10 concentration: 2.0 µM
Enzyme 10 μg/mL, 10 min
  (GR)1 concentration: 156.5 µM
  (GR)2 concentration: 148.1 µM
  (GR)3 concentration: BLQ
  (GR)4 concentration: BLQ
  (GR)5 concentration: BLQ
  (GR)6 concentration: BLQ
  (GR)8 concentration: BLQ
  (GR)10 concentration: BLQ
Enzyme 10 μg/mL, 30 min
  (GR)1 concentration: 212.6 µM
  (GR)2 concentration: 110.1 µM
  (GR)3 concentration: BLQ
  (GR)4 concentration: BLQ
  (GR)5 concentration: BLQ
  (GR)6 concentration: BLQ
  (GR)8 concentration: BLQ
  (GR)10 concentration: BLQ
Enzyme 10 μg/mL, 60 min
  (GR)1 concentration: 289.7 µM
  (GR)2 concentration: 58.6 µM
  (GR)3 concentration: BLQ
  (GR)4 concentration: BLQ
  (GR)5 concentration: BLQ
  (GR)6 concentration: BLQ
  (GR)8 concentration: BLQ
  (GR)10 concentration: BLQ
Enzyme 10 μg/mL, 120 min
  (GR)1 concentration: 349.9 µM
  (GR)2 concentration: 10.7 µM
  (GR)3 concentration: BLQ
  (GR)4 concentration: BLQ
  (GR)5 concentration: BLQ
  (GR)6 concentration: BLQ
  (GR)8 concentration: BLQ
  (GR)10 concentration: BLQ
In solution - 5 min reaction
  (GR)1: 178.0 µM
  (GR)2: 0.0 µM
  (GR)3: 0.0 µM
  (GR)4: 0.0 µM
  (GR)5: 0.0 µM
  (GR)6: 0.0 µM
  (GR)8: 0.0 µM
  (GR)10: 0.0 µM
In solution - 60 min reaction
  (GR)1: 321.4 µM
  (GR)2: 154.0 µM
  (GR)3: 0.0 µM
  (GR)4: 0.0 µM
  (GR)5: 0.0 µM
  (GR)6: 0.0 µM
  (GR)8: 0.0 µM
  (GR)10: 0.0 µM

B2: Clostripain: sulfhydryl protease cleaving at the C-terminus of arginine residues; in Table 23 also immobilized on agarose resin (protein)
chain: NKNQKVTIMYYCDADNNLEGSLLNDIEEMKTGYKDSPNLNLIALVDRSPRYSSDEKVLGEDFSDTRLYKIEHNKANRLDGKNEFPEISTTSKYEANMGDPEVLKKFIDYCKSNYEADKYVLIMANHGGGAREKSNPRLNRAICWDDSNLDKNGEADCLYMGEISDHLTEKQSVDLLAFDACLMGTAEVAYQYRPGNGGFSADTLVASSPVVWGPGFKYDKIFDRIKAGGGTNNEDDLTLGGKEQNFDPATITNEQLGALFVEEQRDSTHANGRYDQHLSFYDLKKAESVKRAIDNLAVNLSNENKKSEIEKLRGSGIHTDLMHYFDEYSEGEWVEYPYFDVYDLCEKINKSENFSSKTKDLASNAMNKLNEMIVYSFGDPSNNFKEGKNGLSIFLPNGDKKYSTYYTSTKIPHWTMQSWYNSIDTVKYGLNPYGKLSWCKDGQDPEINKVGNWFELLDSWFDKTNDVTGGVNHYQW
Enzyme 2.5 μg/mL, 0 min
  (GR)1 concentration: BLQ
  (GR)2 concentration: BLQ
  (GR)4 concentration: BLQ
  (GR)6 concentration: BLQ
  (GR)8 concentration: 0.7 µM
  (GR)10 concentration: 39.7 µM
Enzyme 2.5 μg/mL, 5 min
  (GR)1 concentration: 25.6 µM
  (GR)2 concentration: 8.7 µM
  (GR)4 concentration: 6.7 µM
  (GR)6 concentration: 3.6 µM
  (GR)8 concentration: 2.2 µM
  (GR)10 concentration: 5.4 µM
Enzyme 2.5 μg/mL, 10 min
  (GR)1 concentration: 35.3 µM
  (GR)2 concentration: 14.0 µM
  (GR)4 concentration: 9.8 µM
  (GR)6 concentration: 4.3 µM
  (GR)8 concentration: 1.8 µM
  (GR)10 concentration: 2.3 µM
Enzyme 2.5 μg/mL, 30 min
  (GR)1 concentration: 72.9 µM
  (GR)2 concentration: 36.8 µM
  (GR)4 concentration: 7.5 µM
  (GR)6 concentration: 1.4 µM
  (GR)8 concentration: BLQ
  (GR)10 concentration: BLQ
Enzyme 2.5 μg/mL, 60 min
  (GR)1 concentration: 148.6 µM
  (GR)2 concentration: 62.1 µM
  (GR)4 concentration: 1.9 µM
  (GR)6 concentration: BLQ
  (GR)8 concentration: BLQ
  (GR)10 concentration: BLQ
Enzyme 2.5 μg/mL, 120 min
  (GR)1 concentration: 325.0 µM
  (GR)2 concentration: BLQ
  (GR)4 concentration: BLQ
  (GR)6 concentration: BLQ
  (GR)8 concentration: BLQ
  (GR)10 concentration: BLQ
Enzyme 10 μg/mL, 0 min
  (GR)1 concentration: BLQ
  (GR)2 concentration: BLQ
  (GR)4 concentration: BLQ
  (GR)6 concentration: BLQ
  (GR)8 concentration: 0.6 µM
  (GR)10 concentration: 37.9 µM
Enzyme 10 μg/mL, 5 min
  (GR)1 concentration: 99.0 µM
  (GR)2 concentration: 51.8 µM
  (GR)4 concentration: 5.4 µM
  (GR)6 concentration: 0.6 µM
  (GR)8 concentration: BLQ
  (GR)10 concentration: 0.8 µM
Enzyme 10 μg/mL, 10 min
  (GR)1 concentration: 145.9 µM
  (GR)2 concentration: 62.2 µM
  (GR)4 concentration: 1.8 µM
  (GR)6 concentration: BLQ
  (GR)8 concentration: BLQ
  (GR)10 concentration: BLQ
Enzyme 10 μg/mL, 30 min
  (GR)1 concentration: 336.9 µM
  (GR)2 concentration: BLQ
  (GR)4 concentration: BLQ
  (GR)6 concentration: BLQ
  (GR)8 concentration: BLQ
  (GR)10 concentration: BLQ
Enzyme 10 μg/mL, 60 min
  (GR)1 concentration: 340.3 µM
  (GR)2 concentration: BLQ
  (GR)4 concentration: BLQ
  (GR)6 concentration: BLQ
  (GR)8 concentration: BLQ
  (GR)10 concentration: BLQ
Enzyme 10 μg/mL, 120 min
  (GR)1 concentration: 355.8 µM
  (GR)2 concentration: BLQ
  (GR)4 concentration: BLQ
  (GR)6 concentration: BLQ
  (GR)8 concentration: BLQ
  (GR)10 concentration: BLQ
In solution - 5 min reaction
  (GR)1: 82.6 µM
  (GR)2: 106.2 µM
  (GR)3: 39.1 µM
  (GR)4: 28.6 µM
  (GR)5: 12.7 µM
  (GR)6: 8.4 µM
  (GR)8: 0.0 µM
  (GR)10: 12.4 µM
In solution - 60 min reaction
  (GR)1: 383.2 µM
  (GR)2: 0.0 µM
  (GR)3: 0.0 µM
  (GR)4: 0.0 µM
  (GR)5: 0.0 µM
  (GR)6: 0.0 µM
  (GR)8: 0.0 µM
  (GR)10: 0.0 µM
